Three molecules from patent US20130177579A1 (BIOALLIANCE C V, published 2013) can be followed below.

Experiment [1] deals with T1, human transferrin receptor expressed by normal human cells (RBC, PMN, lymphocytes, monocytes, platelets, … (human, UniProt P02786 1-760)).
T1 construct: The assay is whole-cell FACS on normal donor cells; also called TfR on normal cells
Nature of the experiment: FACS, monocytes, donor D102, 1/10x. On the procedure: (§1) The hyper-immuned serum (Hyp-serum) or the corresponding cell marker antibodies for certain cell types were included as positive controls.
(§2) 1×10⁵ cells were seeded in each well of a v-bottomed 96-well plate and incubated with 50 μl of hybridoma culture supernatant at 1× and 10× dilution, or isotype control antibody mouse IgM, κ (BD™, Cat. No. 557275) at concentration of 1 μg/ml. A 300× dilution of human cell hyper-immune serum was used as binding positive control for all cell types. PE-conjugated anti-human CD41a (Southern Biotech™, Cat. No. 9391-09) was used as a positive control for staining human platelets. Anti-sialyl Lewis x antibody (Millipore™, Cat. No. MAB2096) was used as a positive control for staining human PMN. Anti-human CD31 (Hycult™, Cat. No. HM2039) was used as a positive control for staining HUVEC. After 30 minutes incubation at 4° C., cells were washed twice with 200 μl FACS buffer (1×PBS containing 1% FBS), stained with 50 μl of 1 μg/ml goat F(ab′)2-anti-mouse IgG(H+L)-PE (Southern Biotech™, Cat. No. 1032-09) or 1 μg/ml goat F(ab′)2-anti-mouse IgM(H+L)-PE (Southern Biotech™, Cat. No. 1022-09) in FACS buffer. After 30 minutes of incubation at 4° C., cells were washed twice with FACS buffer and analyzed by flow cytometry (BD LSR, BD Life Sciences).
For orientation: A flow cytometer gives signals particle by particle.

Experiment [2] deals with T1, human transferrin receptor expressed by …. Nature of the experiment: FACS, monocytes, donor D014, 1x. On the procedure:
as §1, §2

Experiment [3] concerns the target human transferrin receptor expressed by nonhematopoietic cancer cells (human) (UniProt P02786). The experiment can be described thus: FACS, OMC-3 cells, 1/5X.
Experiment [4] shares this target. The experiment can be described thus: FACS, Kato III cells, 1/5X.
The target of experiment [5] is T1, human transferrin receptor expressed by …. Nature of the experiment: FACS, PMN, donor D102, 1/10x. On the procedure: (§3) Preparation of PBMC and PMN: The whole blood was diluted with an equal volume of PBS and mixed with 1/10 volume of 15% Dextran solution. […] After centrifugation at 2200 rpm for 15 min (rotor: SORVALL, PN11788 and centrifuge: SORVALL, RT7), PBMC concentrated in the interface, were collected and washed with large volumes of FACS buffer (2% FBS in PBS) for future use. The PMN-rich pellet was collected, from which residual RBC was removed by hypotonic lysis in 0.2% NaCl.
as §2

Experiment [6] shares this target. The experiment can be described thus: FACS, PMN, donor D005, 1x. On the procedure:
as §1, §2

For experiment [7] the target is unchanged. Nature of the experiment: FACS, platelets, donor D005, 1x. On the procedure: as §1, §2
The target of experiment [8] is human transferrin receptor expressed by nonhematopoietic cancer cells (human) (UniProt P02786). The experiment can be described thus: FACS, DLD-1 cells, 1/5X.
The target of experiment [9] is T1, human transferrin receptor expressed by …. The experiment can be described thus: FACS, monocytes, donor D005, 1/10x. On the procedure:
as §3, §2

In experiment [10] the target is T2, human transferrin receptor expressed by Jurkat cells (human, UniProt P02786 1-760).
T2 construct: Endogenous receptor on Jurkat cells; MEM189 was the positive control; also called TfR on T leukemia cell line Jurkat
The experiment can be described thus: FACS, Jurkat cells, 1X.

In experiment [11] the target is T1, human transferrin receptor expressed by …. Nature of the experiment: FACS, RBC, donor D005, 1/10x. On the procedure:
as §1, §2

For experiment [12] the target is unchanged. Nature of the experiment: FACS, platelets, donor D102, 1x. On the procedure:
as §1, §2

For experiment [13] the target is unchanged. The experiment can be described thus: FACS, lymphocytes, donor D102, 1/10x. On the procedure:
as §3, §2

Experiment [14] has the same target. Nature of the experiment: FACS, monocytes, donor D014, 1/10x. On the procedure:
as §3, §2

Experiment [15] shares this target. Nature of the experiment: FACS, PMN, donor D014, 1x. On the procedure:
as §1, §2

For experiment [16] the target is unchanged. The experiment can be described thus: FACS, RBC, donor D014, 1x. On the procedure: as §1, §2
For experiment [17] the target is unchanged. The experiment can be described thus: FACS, platelets, donor D014, 1x. On the procedure: as §1, §2
Experiment [18] deals with human transferrin receptor expressed by nonhematopoietic cancer cells (human) (UniProt P02786). The experiment can be described thus: FACS, Panc02.03B cells, 1/5X.
The target of experiment [19] is T1, human transferrin receptor expressed by …. Nature of the experiment: FACS, platelets, donor D014, 1/10x. On the procedure: as §1, §2
Experiment [20] addresses human transferrin receptor expressed by nonhematopoietic cancer cells (human) (UniProt P02786). Nature of the experiment: FACS, H358 cells, 1X.
In experiment [21] the target is T1, human transferrin receptor expressed by …. The experiment can be described thus: FACS, PMN, donor D016, 1x. On the procedure: as §3, §2

Where only a bound is given, the exact number is not on record here.

T2 sequence (P02786 whole entry G142S): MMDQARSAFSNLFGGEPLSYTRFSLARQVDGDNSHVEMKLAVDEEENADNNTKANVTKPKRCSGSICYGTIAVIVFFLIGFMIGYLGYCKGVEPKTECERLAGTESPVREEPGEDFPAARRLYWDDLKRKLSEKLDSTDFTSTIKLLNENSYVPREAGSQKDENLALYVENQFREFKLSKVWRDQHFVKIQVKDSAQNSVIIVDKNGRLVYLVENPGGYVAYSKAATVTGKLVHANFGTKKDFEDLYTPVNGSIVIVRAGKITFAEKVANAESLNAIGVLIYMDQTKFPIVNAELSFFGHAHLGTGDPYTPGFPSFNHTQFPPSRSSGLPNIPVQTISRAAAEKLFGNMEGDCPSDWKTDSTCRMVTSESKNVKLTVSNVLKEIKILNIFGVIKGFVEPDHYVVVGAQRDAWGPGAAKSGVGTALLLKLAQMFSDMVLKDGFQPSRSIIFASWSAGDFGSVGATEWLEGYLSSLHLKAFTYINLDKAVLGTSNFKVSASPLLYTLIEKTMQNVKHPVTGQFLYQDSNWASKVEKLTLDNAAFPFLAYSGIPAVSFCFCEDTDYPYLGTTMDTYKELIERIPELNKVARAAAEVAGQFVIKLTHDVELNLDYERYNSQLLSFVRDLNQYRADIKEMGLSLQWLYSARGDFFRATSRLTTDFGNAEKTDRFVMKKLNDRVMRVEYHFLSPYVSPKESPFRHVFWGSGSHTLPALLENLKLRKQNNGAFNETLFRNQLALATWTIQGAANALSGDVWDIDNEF
T1 sequence (P02786 whole entry G142S): as above
Sequence of human transferrin receptor expressed by nonhematopoietic cancer cells (human) (P02786 whole entry G142S): as above

B1: antibody 122-72 (antibody, V domains shown)
VH: EVQLVESGGGLVQPKGSLKLSCAASGFTFNTYAMNWVRQAPGKGLEWVARIRSKSNNYATYYADSVKDRFTISRDDSQSMLYLQMNNLKTEDTAMYYCVAYGSRNYWGQGTTLTVSS
VL: DIVMTQSPSSLTVTAGEKVTMSCKSSQSLLNSGNQKNYLTWYQQKPGQPPKLLIYWASTRESGVPDRFTGSGSGTDFTLTISSVQAEDLAVYYCQNDYSYPYTFGGGTKLEIKR
notes: Mouse IgM, kappa from a hybridoma; tested as hybridoma culture supernatant; Antibody 60-43 is said to have the same CDRs
Turning to B1, the “% positive cell binding” value in [1] was 4%; in experiment [2], < 1%; in [5] it was 1%; in experiment [6], < 1%; in [7] it was < 1%; in [9], 4%. Besides, the “% positive cell binding” value in experiment [11] was < 1%; in experiment [12], < 1%; in [13], 2%; in experiment [14], 1%; in experiment [15], 1%; in experiment [16], 1%. In addition, the “% positive cell binding” value in experiment [17], in [19] and in experiment [21] was < 1% each time. Further, the MFI in experiment [3] is 3040 MFI; in [4], 724 MFI; in [8], 2690 MFI; in experiment [18], 4670 MFI; in experiment [20], 942 MFI. Also, in experiment [10], the “% of gated cells” value was determined as 1%.

B2: antibody 6-90 (antibody, mouse IgM, V domains shown)
VH: EVELQQFGIEMVKPGASVKISCKASGYIFTDYHMDWVRQSHGKSLEWIGDIDPKYDRVTYNQKFKGKASLTADKSSSTAYMELRSLTSEDTAVYYCAKTGAYGDYLAYWGQGTLVTVSA
VL: DLVMTQTPLSLPVSLGDQASISCRSSQSLVHSDGNTYFYWYLQKPGQSPKLLIYKVSNRFSGVPDRFSAGGSGTYFTLKISRVEAEDLGVYFCSQTTHFPPTFGGGTKLEIKR
notes: Mouse IgM, kappa from a hybridoma; tested as hybridoma culture supernatant
B2: the “% positive cell binding” value was 2% in [1]; < 1% in experiment [2]; 1% in experiment [5]; 1% in experiment [6]; < 1% in experiment [7]; 4% in experiment [9]. The “% positive cell binding” value was < 1% in experiment [11]; < 1% in [12]; 2% in experiment [13]; < 1% in experiment [14]; < 1% in [15]; 1% in experiment [16]. Besides, the figures for the “% positive cell binding” value in experiment [17], in [19] and in [21] were < 1%, < 1% and 1%, respectively. Besides, the MFI is 2150 MFI in experiment [3]; 1250 MFI in experiment [4]; 3900 MFI in experiment [8]; 4910 MFI in experiment [18]; 823 MFI in experiment [20]. In [10], the “% of gated cells” value was < 1%.

B3: antibody 55-31 (antibody, mouse IgM, V domains shown)
VH: QVQLQQPGAELVKPGTSVKLSCKASGYNFTSYWINWVKLRPGQGLEWIGDIYPGSGSTNYNEKFKSKATLTVDTSSSTAYMQLSSLASEDSALYYCARSAYRYDWFAYWGQGTLVTVSA
VL: DIQMTQSPASLSVSVGETVTITCRASENIYSNLAWYQQKQGKSPQLLVYAATNLADGVPSRFSGSGSGTQYSLKINSLQSEDFGSYYCQHFWGTPYTFGGGTKLEIKR
notes: as for B2
Take B3: the “% positive cell binding” value in experiment [1] was 1%; in experiment [2], < 1%; in experiment [5], 1%; in experiment [6] it was 1%; in [7] it was < 1%; in experiment [9], 3%. Further, the “% positive cell binding” value in experiment [11] was < 1%; in [12], < 1%; in [13], 1%; in [14] it was < 1%; in experiment [15], < 1%; in experiment [16], 1%. For the same molecule, the “% positive cell binding” value in experiment [17], in [19] and in experiment [21] was < 1% in each case. In addition, the MFI in experiment [3] came out at 179 MFI; in experiment [4], 97 MFI; in experiment [8], 104 MFI; in [18], 314 MFI; in experiment [20] it was 234 MFI. Also, the “% of gated cells” value in experiment [10] is 1%.
